Experimental findings from US20130236462A1 (Sanofi, published 2013) are described below.

One may read the Kd as the free concentration of one partner at which half of the binding sites on the other are occupied at equilibrium, for simple one-to-one binding. For orientation: koff means the rate constant with which the complex falls apart. One may read the kon as the rate constant with which the complex forms.

Where two headings read alike, the source gives them in different places.

In experiment [1] the target is T1, recombinant human IL-13 (human, UniProt P35225 35-146, limits assumed). Description: cell-based or functional assay.
For experiment [2], the target named is T1, recombinant human IL-13. Description: SPR Biacore 3000, ratio of KD. From the text: (§1) Surface plasmon resonance technology on a Biacore 3000 (GE Healthcare) was used for detailed kinetic characterisation of purified anibodics. A capture assay using a species specific antibody (e.g. human-Fc specific MAB 1302, Chemicon) for capture and orientation of the investigated antibodies was used. The capture antibody was immobilized via primary amine groups (10000 RU) on a research grade CM5 chip (GE Life Sciences) using standard procedures. The analysed antibody was captured with an adjusted RU value that would result in maximal analyte binding of 30 RU at a flow rate of 10 μl/min. Binding kinetics were measured against recombinant human IL-4 and IL-13 over a concentration range between 0 to 50 nM in HBS EP (10 mM HEPES pH 7.4, 150 mM NaCl, 3 mM EDTA, 0.005% Surfactant P20) at a flow rate of 30 μl/min. Chip surfaces were regenerated with 10 mM glycine pH2.5. Kinetic parameters were analysed and calculated in the BIAevaluation program package using a flow cell without captured antibody as reference. To investigate additive binding of both antigens, a wizard-driven co-inject method has been applied in which one antigen was injected immediately followed by the antigen mix of IL-13/IL-4.

In experiment [3] the target is T1, recombinant human IL-13. Description: SPR Biacore 3000, antibody captured, cytokine in solution.
From the text: as §1
For orientation: In SPR one partner is held on a chip, and binding of the other changes the refractive index at the surface.

For experiment [4], the target named is T2, recombinant human IL-4 (human, UniProt P05112 25-153).
T2 sequence (looked up): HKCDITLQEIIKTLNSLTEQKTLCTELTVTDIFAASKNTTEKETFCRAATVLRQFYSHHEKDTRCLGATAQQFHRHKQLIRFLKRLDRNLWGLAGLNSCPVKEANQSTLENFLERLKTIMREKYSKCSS
The experiment can be described thus: cell-based or functional assay.

Experiment [5] concerns the target T2, recombinant human IL-4. Description: SPR Biacore 3000, ratio of KD.
From the text: as §1

For experiment [6], the target named is T2, recombinant human IL-4. The experiment can be described thus: SPR Biacore 3000, antibody captured, cytokine in solution.
From the text: as §1

The target of experiment [7] is T2, recombinant human IL-4. Description: cell-based or functional assay. This is another data set of the same source.
For experiment [8], the target named is human IL-13 R112Q variant (human) (UniProt P35225). The experiment can be described thus: SPR Biacore 3000, antibody captured, cytokine in solution.
For experiment [9], the target named is T2, recombinant human IL-4. The experiment is described as above.
From the text: as §1
Binding and neutralization activity assays were performed as described in the previous Examples.
This is another data set of the same source.

T1 sequence (P35225 35-146 limits assumed): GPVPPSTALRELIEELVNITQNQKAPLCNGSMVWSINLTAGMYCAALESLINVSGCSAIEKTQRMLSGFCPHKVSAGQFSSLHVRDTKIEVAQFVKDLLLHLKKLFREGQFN
Chain of human IL-13 R112Q variant (human) (P35225 33-146, stated change not applied): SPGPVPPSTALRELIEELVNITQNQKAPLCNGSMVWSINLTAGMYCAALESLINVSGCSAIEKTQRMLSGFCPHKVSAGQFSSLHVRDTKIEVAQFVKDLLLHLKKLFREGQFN

B1: huB-B13 VL3 × VH2 (antibody, V domains shown)
VH: EVQLKESGPGLVAPGGSLSITCTVSGFSLTDSSINWVRQPPGKGLEWLGMIWGDGRIDYADALKSRLSISKDSSKSQVFLEMTSLRTDDTATYYCARDGYFPYAMDFWGQGTSVTVSS
VL: DIVLTQSPASLAVSLGQRATISCRASESVDSYGQSYMHWYQQKAGQPPKLLIYLASNLESGVPARFSGSGSRTDFTLTIDPVQAEDAATYYCQQNAEDSRTFGGGTKLEIK
notes: Expressed as a whole antibody, purified on Protein A; also called huB-B13 VL3xVH2; humanized B-B13 VL3xVH2
Consider B1, for which, in the experiment with recombinant human IL-13 [1], the “IC50, inhibition of IL-13 induced TF-1 cell proliferation” value came to 3.2 nM. In addition, in the experiment with recombinant human IL-13 [2], the “fold higher affinity than chimeric B-B13” value was 6 fold and the “fold higher affinity than the original murine B-B13” value amounted to 13 fold. In the experiment with recombinant human IL-13 [3], the Kd turned out to be 0.0439 nM, the koff was 0.000112 s⁻¹ and the kon worked out at 2.55e+06 M⁻¹ s⁻¹.

B2: Hu8D4-8 VL1 × VH1 (antibody, V domains shown)
VH: QVQLQQSGPELVKPGASVKISCKASGYSFTSYWIHWIKQRPGQGLEWIGMIDPSDGETRLNQRFQGRATLTVDESTSTAYMQLRSPTSEDSAVYYCTRLKEYGNYDSFYFDVWGAGTLVTVSS
VL: DIQMTQSPASLSVSVGDTITLTCHASQNIDVWLSWFQQKPGNIPKLLIYKASNLHTGVPSRFSGSGSGTGFTLTISSLQPEDIATYYCQQAHSYPFTFGGGTKLEIKR
notes: Expressed as a whole antibody, purified on Protein A; also called hu8D4-8 VL1xVH1; humanized 8D4-8 VL1xVH1
Regarding B2, the “IC50, inhibition of IL-4 induced TF-1 cell proliferation” value in the experiment with recombinant human IL-4 [4] was 41 pM. Moreover, in the experiment with recombinant human IL-4 [5], the “fold higher affinity than chimeric 8D4-8” value was 2 fold and the “fold higher affinity than the original murine 8D4-8” value is 11 fold. Besides, in the experiment with recombinant human IL-4 [6], the Kd amounted to 3.29 pM, the koff was found to be 0.000155 s⁻¹ and the kon stood at 4.72e+07 M⁻¹ s⁻¹.

B3: huTBTI3_2_1 (bispecific antibody, IgG4)
VH: EVQLKESGPGLVAPGGSLSITCTVSGFSLTDSSINWVRQPPGKGLEWLGMIWGDGRIDYADALKSRLSISKDSSKSQVFLEMTSLRTDDTATYYCARDGYFPYAMDFWGQGTSVTVSSGGGGSGGGGSQVQLQQSGPELVKPGASVKISCKASGYSFTSYWIHWIKQRPGQGLEWIGMIDPSDGETRLNQRFQGRATLTVDESTSTAYMQLRSPTSEDSAVYYCTRLKEYGNYDSFYFDVWGAGTLVTVSS
VL: DIVLTQSPASLAVSLGQRATISCRASESVDSYGQSYMHWYQQKAGQPPKLLIYLASNLESGVPARFSGSGSRTDFTLTIDPVQAEDAATYYCQQNAEDSRTFGGGTKLEIKGGGGSGGGGSDIQMTQSPASLSVSVGDTITLTCHASQNIDVWLSWFQQKPGNIPKLLIYKASNLHTGVPSRFSGSGSGTGFTLTISSLQPEDIATYYCQQAHSYPFTFGGGTKLEIK
notes: Dual variable domain IgG4: B-B13 VL3 × VH2 outer, 8D4-8 VL1 × VH1 inner, (G4S)2 linkers; heterotetramer of two heavy and two light chains; copies: 2 + 2
For the molecule B3, the “IC50 (nM) in IL-4 assay (TF-1 cell proliferation)” value in the experiment with recombinant human IL-4 [7] was 0.32 nM. In [8], this molecule had a Kd of 0.211 nM, a koff of 0.0002 s⁻¹ and an association rate constant (kon) of 948000 M⁻¹ s⁻¹. Besides, in the experiment with recombinant human IL-4 [9], the Kd stood at 0.0347 nM, the off-rate constant (koff) is 0.000139 s⁻¹ and the on-rate constant (kon) turned out to be 4e+06 M⁻¹ s⁻¹.
